Ends that are not written are not given here.
Assays:
Test in all cases: cell-based or functional assay
[1] = target: recombinant human angiotensin converting enzyme (R & D systems, product number 929-ZN) (human, UniProt P12821 30-1261)
[2] = target: recombinant human ACE2 (R & D systems, product number 933-ZN) (human, UniProt Q9BYF1 18-740)
[3] = target: recombinant human thimet oligopeptidase (R & D systems, product number 3439-ZN) (human, UniProt P52888 1-689, limits assumed)
[4] = target: recombinant human neprilysin (R & D systems, product number 1182-ZNC) (human, UniProt P08473 52-750)
[5] = target: Neurolysin (Nln) as used for the A50 and Amax values of Tables 2 and 5

Sequence of recombinant human thimet oligopeptidase (R & D systems, product number 3439-ZN) (P52888 whole entry): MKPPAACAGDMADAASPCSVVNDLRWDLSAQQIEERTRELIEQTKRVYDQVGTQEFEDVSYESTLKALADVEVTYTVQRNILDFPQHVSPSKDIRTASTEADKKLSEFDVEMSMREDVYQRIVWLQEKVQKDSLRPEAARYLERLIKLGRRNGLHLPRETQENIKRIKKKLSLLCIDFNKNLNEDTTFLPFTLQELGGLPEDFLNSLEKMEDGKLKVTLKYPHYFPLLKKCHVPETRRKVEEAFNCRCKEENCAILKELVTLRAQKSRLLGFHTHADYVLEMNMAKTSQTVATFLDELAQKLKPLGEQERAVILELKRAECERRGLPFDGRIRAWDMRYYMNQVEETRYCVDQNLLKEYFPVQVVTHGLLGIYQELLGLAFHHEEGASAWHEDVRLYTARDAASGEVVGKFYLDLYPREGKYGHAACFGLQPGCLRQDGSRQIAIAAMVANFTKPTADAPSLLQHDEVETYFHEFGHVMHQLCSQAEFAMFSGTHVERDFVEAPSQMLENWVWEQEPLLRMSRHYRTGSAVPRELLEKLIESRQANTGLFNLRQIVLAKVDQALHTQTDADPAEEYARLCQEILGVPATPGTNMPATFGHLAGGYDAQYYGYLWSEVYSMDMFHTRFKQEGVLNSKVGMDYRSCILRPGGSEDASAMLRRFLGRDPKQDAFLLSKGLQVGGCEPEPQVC
Sequence of recombinant human angiotensin converting enzyme (R & D systems, product number 929-ZN) (P12821 30-1261 limits assumed): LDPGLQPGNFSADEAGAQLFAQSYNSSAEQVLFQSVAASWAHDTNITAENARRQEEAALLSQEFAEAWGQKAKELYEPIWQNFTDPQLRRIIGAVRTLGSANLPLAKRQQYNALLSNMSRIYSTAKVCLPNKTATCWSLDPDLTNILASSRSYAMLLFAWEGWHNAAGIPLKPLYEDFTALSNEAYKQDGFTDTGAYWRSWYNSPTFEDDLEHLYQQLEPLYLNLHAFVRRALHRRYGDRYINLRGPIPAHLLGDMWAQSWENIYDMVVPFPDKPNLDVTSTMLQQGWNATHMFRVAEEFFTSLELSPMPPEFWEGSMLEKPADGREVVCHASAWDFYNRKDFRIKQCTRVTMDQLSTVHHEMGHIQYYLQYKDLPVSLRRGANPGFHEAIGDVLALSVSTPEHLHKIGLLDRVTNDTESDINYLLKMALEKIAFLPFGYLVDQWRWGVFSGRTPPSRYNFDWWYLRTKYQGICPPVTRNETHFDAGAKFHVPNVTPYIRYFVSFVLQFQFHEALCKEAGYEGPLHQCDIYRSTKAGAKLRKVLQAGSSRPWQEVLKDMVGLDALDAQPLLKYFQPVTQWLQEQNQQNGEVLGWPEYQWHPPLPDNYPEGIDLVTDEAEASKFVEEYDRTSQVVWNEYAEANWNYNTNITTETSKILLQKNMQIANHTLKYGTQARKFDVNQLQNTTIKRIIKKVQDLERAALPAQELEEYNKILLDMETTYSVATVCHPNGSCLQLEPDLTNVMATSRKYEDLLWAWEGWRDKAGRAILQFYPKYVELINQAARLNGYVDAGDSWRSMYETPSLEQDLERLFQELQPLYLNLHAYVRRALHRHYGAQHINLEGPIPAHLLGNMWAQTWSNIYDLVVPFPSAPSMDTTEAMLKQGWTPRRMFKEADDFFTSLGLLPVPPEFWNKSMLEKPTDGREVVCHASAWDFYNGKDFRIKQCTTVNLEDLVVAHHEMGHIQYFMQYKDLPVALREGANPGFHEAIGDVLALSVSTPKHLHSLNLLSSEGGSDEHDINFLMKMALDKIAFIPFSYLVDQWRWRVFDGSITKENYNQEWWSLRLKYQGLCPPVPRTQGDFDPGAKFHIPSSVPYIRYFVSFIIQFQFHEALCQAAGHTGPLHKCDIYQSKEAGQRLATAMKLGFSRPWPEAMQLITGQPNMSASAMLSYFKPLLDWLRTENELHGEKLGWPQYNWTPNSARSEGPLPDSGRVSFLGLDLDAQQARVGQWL
Sequence of recombinant human neprilysin (R & D systems, product number 1182-ZNC) (P08473 52-750 limits assumed): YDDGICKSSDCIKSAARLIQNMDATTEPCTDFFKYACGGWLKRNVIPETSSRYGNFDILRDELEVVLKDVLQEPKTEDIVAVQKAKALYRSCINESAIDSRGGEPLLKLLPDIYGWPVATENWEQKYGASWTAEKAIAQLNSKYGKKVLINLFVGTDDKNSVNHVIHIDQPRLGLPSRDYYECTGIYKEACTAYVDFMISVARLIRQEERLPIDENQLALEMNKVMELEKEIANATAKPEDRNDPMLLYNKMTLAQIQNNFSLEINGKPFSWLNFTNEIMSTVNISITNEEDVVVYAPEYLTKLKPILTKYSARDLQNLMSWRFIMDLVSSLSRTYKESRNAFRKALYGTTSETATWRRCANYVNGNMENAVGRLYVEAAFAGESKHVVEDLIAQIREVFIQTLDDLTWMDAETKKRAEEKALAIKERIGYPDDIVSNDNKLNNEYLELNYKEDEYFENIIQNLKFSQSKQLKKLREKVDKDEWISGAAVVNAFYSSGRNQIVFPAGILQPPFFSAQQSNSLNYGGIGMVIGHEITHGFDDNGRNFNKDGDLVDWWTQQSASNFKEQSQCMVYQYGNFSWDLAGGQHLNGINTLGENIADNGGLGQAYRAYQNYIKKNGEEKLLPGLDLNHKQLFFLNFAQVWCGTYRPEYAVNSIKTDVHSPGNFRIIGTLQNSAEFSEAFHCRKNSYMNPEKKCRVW
Sequence of recombinant human ACE2 (R & D systems, product number 933-ZN) (Q9BYF1 18-740 limits assumed): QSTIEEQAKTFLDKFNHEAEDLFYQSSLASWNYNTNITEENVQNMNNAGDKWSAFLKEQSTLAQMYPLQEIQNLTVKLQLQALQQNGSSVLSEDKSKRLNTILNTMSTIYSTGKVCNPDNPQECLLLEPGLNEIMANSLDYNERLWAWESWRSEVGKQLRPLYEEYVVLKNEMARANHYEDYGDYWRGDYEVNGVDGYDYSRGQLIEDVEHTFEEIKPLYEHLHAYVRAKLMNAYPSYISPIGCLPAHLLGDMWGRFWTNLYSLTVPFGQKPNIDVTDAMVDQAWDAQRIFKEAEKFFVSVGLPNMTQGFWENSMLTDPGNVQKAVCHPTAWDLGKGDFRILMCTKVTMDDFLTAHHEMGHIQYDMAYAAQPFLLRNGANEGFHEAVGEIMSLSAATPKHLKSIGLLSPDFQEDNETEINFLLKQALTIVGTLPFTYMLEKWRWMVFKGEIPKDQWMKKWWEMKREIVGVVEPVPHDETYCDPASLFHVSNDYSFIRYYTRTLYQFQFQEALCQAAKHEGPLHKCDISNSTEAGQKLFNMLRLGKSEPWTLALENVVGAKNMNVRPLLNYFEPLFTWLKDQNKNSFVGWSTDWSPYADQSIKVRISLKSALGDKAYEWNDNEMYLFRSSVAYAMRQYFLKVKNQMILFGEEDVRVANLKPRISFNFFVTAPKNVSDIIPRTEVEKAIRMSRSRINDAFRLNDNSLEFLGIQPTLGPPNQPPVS

Binder | inhibition of activity at 300 µM (quenched fluorescent substrate hydrolysis) [1] | inhibition of activity at 300 µM (quenched fluorescent substrate hydrolysis) [2] | inhibition of activity at 300 µM (quenched fluorescent substrate hydrolysis) [3] | inhibition of activity at 300 µM (quenched fluorescent substrate hydrolysis) [4] | Amax [5] | A50 [5]
His-His (also: mixture of D- and L-His at both positions) [NlnA#2, NSC 523374, D,L-histidyl-D,L-histidine] | 12.2% | 10.9% | 15.6% | 1.6% | – | –
HW [His-Trp] | – | – | – | – | 440% | –
HF [His-Phe] | – | – | – | – | 573% | 130 µM

Next, values leading:

inhibition of activity at 300 µM (quenched fluorescent substrate hydrolysis) [1] | inhibition of activity at 300 µM (quenched fluorescent substrate hydrolysis) [2] | inhibition of activity at 300 µM (quenched fluorescent substrate hydrolysis) [3] | inhibition of activity at 300 µM (quenched fluorescent substrate hydrolysis) [4] | Amax [5] | A50 [5] | Binder
22.6% | 13.4% | 25.9% | 2.9% | 467% | – | HY [NlnA#1, NSC 374121, L-histidyl-L-tyrosine]
– | – | – | – | 502% | – | HP [His-Pro]

Reference: patent US20210198647A1 (TEXAS TECH UNIVERSITY SYSTEM, published 2021)
